Sequences and labels used below:
B1: Erythropoietin receptor (Homo sapiens), P19235 (parent)
chain: MDHLGASLWPQVGSLCLLLAGAAWAPPPNLPDPKFESKAALLAARGPEELLCFTERLEDLVCFWEEAASAGVGPGNYSFSYQLEDEPWKLCRLHQAPTARGAVRFWCSLPTADTSSFVPLELRVTAASGAPRYHRVIHINEVVLLDAPVGLVARLADESGHVVLRWLPPPETPMTSHIRYEVDVSAGNGAGSVQRVEILEGRTECVLSNLRGRTRYTFAVRARMAEPSFGGFWSAWSEPVSLLTPSDLDPLILTLSLILVVILVLLTVLALLSHRRALKQKIWPGIPSPESEFEGLFTTHKGNFQLWLYQNDGCLWWSPCTPFTEDPPASLEVLSERCWGTMQAVEPGTDDEGPLLEPVGSEHAQDTYLVLDKWLLPRNPPSEDLPGPGGSVDIVAMDEGSEASSCSSALASKPSPEGASAASFEYTILDPSSQLLRPWTLCPELPPTPPHLKYLYLVVSDSGISTDYSSGDSQGAQGGLSDGPYSNPYENSLIPAAEPLPPSYVACS
partner: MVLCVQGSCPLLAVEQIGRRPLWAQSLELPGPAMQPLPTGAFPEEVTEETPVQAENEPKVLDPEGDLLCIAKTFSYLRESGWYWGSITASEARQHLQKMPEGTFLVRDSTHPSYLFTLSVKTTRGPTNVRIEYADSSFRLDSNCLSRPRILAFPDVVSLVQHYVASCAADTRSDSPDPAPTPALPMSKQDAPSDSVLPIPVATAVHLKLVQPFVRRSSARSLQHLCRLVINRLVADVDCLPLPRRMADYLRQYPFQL
B2: Erythropoietin receptor (Homo sapiens), P19235 (parent)
chain: B1 chain

In one test the parent is B1. Particulars: with cish_mouse Cish.
With Y426F, the “effect of a mutation on the interaction” value is given as “decreasing interaction”.

In another test the parent is B2. The settings on record: with socs2_human SOCS2, O14508.
socs2_human SOCS2, O14508, sequence (O14508 whole entry): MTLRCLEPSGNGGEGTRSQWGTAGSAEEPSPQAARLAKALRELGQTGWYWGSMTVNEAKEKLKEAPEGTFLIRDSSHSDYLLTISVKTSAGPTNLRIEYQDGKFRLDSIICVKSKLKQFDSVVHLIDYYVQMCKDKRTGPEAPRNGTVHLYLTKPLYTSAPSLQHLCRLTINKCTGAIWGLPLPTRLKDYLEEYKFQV
Turning to Y426F, the “effect of a mutation on the interaction” value was “decreasing interaction”.

The record behind these values is IntAct's records for PubMed 11781573.
